Measured values reported in patent US20200024330A1.

What was measured:
Assay in all cases: cell-based or functional assay
[1] = molecular target: HIV-1 93UG077 envelope glycoprotein (Env) (HIV-1)
[2] = molecular target: HIV-1 Env of isolate 92WR024 (HIV-1)
[3] = molecular target: HIV-1 92BR020 envelope protein (Env) on pseudovirus (HIV-1)
[4] = molecular target: HIV-1 92UG037 envelope glycoprotein (Env) (HIV-1)
[5] = molecular target: HIV-1 98CN006 envelope glycoprotein (Env) on pseudovirus (HIV-1)
[6] = molecular target: HIV-1 Env of isolate 92UG046 (clade D) (HIV-1)
[7] = molecular target: HIV-1 Env of pseudovirus TRO.11 (Acute), clade B (HIV-1)
[8] = molecular target: HIV-1 LAVIC_18 Env (HIV-1)
[9] = molecular target: HIV-1 MGRM-A-012 envelope glycoprotein (Env) (HIV-1)
[10] = molecular target: HIV-1 MGRM-A-014 envelope glycoprotein (Env) (HIV-1)
[11] = molecular target: HIV-1 MGRM-C-006 Env (HIV-1)
[12] = molecular target: HIV-1 MGRM-F1-010 Env (pseudovirus) (HIV-1)
[13] = molecular target: HIV-1 93IN905 Env (pseudovirus) (HIV-1)
[14] = molecular target: HIV-1 93TH305 Env (pseudovirus) (HIV-1)
[15] = molecular target: HIV-1 CAAN.A2 Env (pseudovirus) (HIV-1)
[16] = molecular target: HIV-1 Env of isolate 97ZA012 (pseudovirus) (HIV-1 isolate 97ZA012, subtype C)
[17] = molecular target: HIV-1 Env of isolate MG RM-AG-009 (HIV-1)
[18] = molecular target: HIV-1 Env of isolate MG RM-D-019 (subtype D) (HIV-1)
[19] = molecular target: HIV-1 Env of isolate MGRM-C-005 (pseudovirus) (HIV-1 isolate MGRM-C-005, subtype C)
[20] = molecular target: HIV-1 Env of isolate MGRM-C-012 (pseudovirus) (HIV-1 isolate MGRM-C-012, subtype C)
[21] = molecular target: HIV-1 Env of isolate MGRM-C-023 (pseudovirus) (HIV-1 isolate MGRM-C-023, subtype C)
[22] = molecular target: HIV-1 MGRM-Chronic-B-004 Env (pseudovirus) (HIV-1)
[23] = molecular target: HIV-1 MGRM-Chronic-B-011 Env (pseudovirus) (HIV-1)
[24] = molecular target: HIV-1 MGRM-Chronic-B-017 Env (pseudovirus) (HIV-1)
[25] = molecular target: HIV-1 VLGCB3 Env (pseudovirus) (HIV-1)
[26] = molecular target: HIV-1 Env of isolate MGRM-G-009 (subtype G) (HIV-1)
[27] = molecular target: HIV-1 Env of isolate MGRM-G-011 (subtype G) (HIV-1)
[28] = molecular target: HIV-1 Env of isolate MGRM-G-019 (subtype G) (HIV-1)
[29] = molecular target: HIV-1 MGRM-A-010 envelope glycoprotein (Env) on pseudovirus (HIV-1)
[30] = molecular target: HIV-1 MGRM-C-026 envelope glycoprotein (Env) on pseudovirus (HIV-1)

Sequence of PGT-141 (4964_G22; 4993_K13) (antibody) (VH): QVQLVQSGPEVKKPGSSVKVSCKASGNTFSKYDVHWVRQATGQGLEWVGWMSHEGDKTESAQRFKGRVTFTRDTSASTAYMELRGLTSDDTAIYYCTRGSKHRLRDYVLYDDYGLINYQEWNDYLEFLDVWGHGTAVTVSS
Sequence of PGT-141 (4964_G22; 4993_K13) (antibody) (VL): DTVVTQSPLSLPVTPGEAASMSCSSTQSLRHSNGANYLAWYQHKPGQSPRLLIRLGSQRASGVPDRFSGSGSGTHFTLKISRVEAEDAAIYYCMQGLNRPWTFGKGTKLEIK
Sequence of PGT-142 (4995_E20) (antibody) (VH): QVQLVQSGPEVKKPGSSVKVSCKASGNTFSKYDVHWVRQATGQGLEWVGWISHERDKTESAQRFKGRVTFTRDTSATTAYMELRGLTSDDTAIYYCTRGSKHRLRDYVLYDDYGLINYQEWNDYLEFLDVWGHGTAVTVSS
Sequence of 1443_C16 (PG16) (TCN-116) (antibody) (VH): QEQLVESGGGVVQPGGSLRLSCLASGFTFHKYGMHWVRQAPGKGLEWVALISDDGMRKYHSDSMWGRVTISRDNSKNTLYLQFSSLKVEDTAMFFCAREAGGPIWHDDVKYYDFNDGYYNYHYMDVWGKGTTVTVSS
Sequence of 1443_C16 (PG16) (TCN-116) (antibody) (VL): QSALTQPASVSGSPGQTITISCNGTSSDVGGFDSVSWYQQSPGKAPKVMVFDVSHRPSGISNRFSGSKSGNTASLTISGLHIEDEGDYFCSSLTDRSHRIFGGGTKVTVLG

## PGT-121 (antibody)
[1]
  IC50 neutralization: 0.0459 µg/mL
[2]
  IC50 (µg/mL), pseudovirus neutralization: > 50 µg/mL

## 2F5 (antibody)
[3]
  neutralization IC50: > 50 µg/mL
[4]
  IC50 (µg/ml), pseudovirus neutralization: 3.24 µg/mL
[1]
  IC50 (µg/ml), pseudovirus neutralization: 3.3 µg/mL
[5]
  IC50 (µg/ml), pseudovirus neutralization: > 50 µg/mL
[6]
  IC50 (µg/ml), pseudovirus neutralization: > 50 µg/mL
[7]
  IC50 (µg/ml), pseudovirus neutralization: > 50 µg/mL
[8]
  IC50: > 50 µg/mL
[9]
  IC50 (µg/ml), pseudovirus neutralization: 2.36 µg/mL
[10]
  IC50 (µg/ml), pseudovirus neutralization: 1.43 µg/mL
[11]
  IC50: > 50 µg/mL
[12]
  IC50 (µg/ml), pseudovirus neutralization: 14.6 µg/mL

## 4838_L06 (PGT-121) (antibody)
[13]
  IC50, pseudovirus neutralization: 0.005 µg/mL
  neutralization IC80: 0.0302 µg/mL
  neutralization IC90: 0.0645 µg/mL
[14]
  IC50, pseudovirus neutralization: 0.007 µg/mL
[15]
  IC50, pseudovirus neutralization: 0.011 µg/mL
[16]
  IC50 (µg/mL) neutralization: 0.002 µg/mL
[17]
  neutralization IC50: 0.08 µg/mL
[18]
  IC50 (µg/mL), pseudovirus neutralization: > 50 µg/mL
[19]
  IC50 (µg/mL) neutralization: 0.015 µg/mL
[20]
  IC50 (µg/mL) neutralization: 0.123 µg/mL
[21]
  IC50 (µg/mL) neutralization: 0.017 µg/mL
[22]
  IC50, pseudovirus neutralization: 0.009 µg/mL
[23]
  IC50, pseudovirus neutralization: > 50 µg/mL
[24]
  IC50, pseudovirus neutralization: > 50 µg/mL
[25]
  IC50, pseudovirus neutralization: 0.005 µg/mL

## PGT-122 (antibody)
[1]
  IC50 neutralization: 0.191 µg/mL
[2]
  IC50 (µg/mL), pseudovirus neutralization: > 50 µg/mL

## 1495_C14 (PGC14) (antibody)
[3]
  neutralization IC50: 0.637 µg/mL
[4]
  IC50 (µg/ml), pseudovirus neutralization: > 50 µg/mL
[1]
  IC50 (µg/ml), pseudovirus neutralization: > 50 µg/mL
[5]
  IC50 (µg/ml), pseudovirus neutralization: > 50 µg/mL
[6]
  IC50 (µg/ml), pseudovirus neutralization: > 50 µg/mL
[7]
  IC50 (µg/ml), pseudovirus neutralization: > 50 µg/mL
[8]
  IC50: > 50 µg/mL
[9]
  IC50 (µg/ml), pseudovirus neutralization: > 50 µg/mL
[10]
  IC50 (µg/ml), pseudovirus neutralization: > 50 µg/mL
[11]
  IC50: > 50 µg/mL
[12]
  IC50 (µg/ml), pseudovirus neutralization: > 50 µg/mL

## PGT-142 (4995_E20) (antibody)
[26]
  neutralization IC50: 2.81 µg/mL
[27]
  neutralization IC50: 0.046 µg/mL
[28]
  neutralization IC50: 5.95 µg/mL

## 1443_C16 (PG16) (TCN-116) (antibody)
[3]
  neutralization IC50: > 50 µg/mL
[4]
  IC50 (µg/ml), pseudovirus neutralization: 0.01 µg/mL
[1]
  IC50 (µg/ml), pseudovirus neutralization: > 50 µg/mL
[5]
  IC50 (µg/ml), pseudovirus neutralization: > 50 µg/mL
[6]
  IC50 (µg/ml), pseudovirus neutralization: 1.42 µg/mL
[7]
  IC50 (µg/ml), pseudovirus neutralization: 0.22 µg/mL
[8]
  IC50: 0.02 µg/mL
[9]
  IC50 (µg/ml), pseudovirus neutralization: 20.7 µg/mL
[10]
  IC50 (µg/ml), pseudovirus neutralization: 20.3 µg/mL
[11]
  IC50: 2.62 µg/mL
[12]
  IC50 (µg/ml), pseudovirus neutralization: 0.01 µg/mL

## PGT-141 (4964_G22; 4993_K13) (antibody)
[26]
  neutralization IC50: 1.89 µg/mL
[27]
  neutralization IC50: 0.086 µg/mL
[28]
  neutralization IC50: 20.3 µg/mL

## 4877_D15 (PGT-122) (antibody)
[13]
  IC50, pseudovirus neutralization: 0.013 µg/mL
[14]
  IC50, pseudovirus neutralization: 0.013 µg/mL
[15]
  IC50, pseudovirus neutralization: 0.011 µg/mL
[16]
  IC50 (µg/mL) neutralization: 0.004 µg/mL
[17]
  neutralization IC50: 0.128 µg/mL
[18]
  IC50 (µg/mL), pseudovirus neutralization: > 50 µg/mL
[19]
  IC50 (µg/mL) neutralization: 0.027 µg/mL
[20]
  IC50 (µg/mL) neutralization: 2 µg/mL
[21]
  IC50 (µg/mL) neutralization: 0.027 µg/mL
[29]
  IC50 (ug/ml), neutralizing activity: 1.68 µg/mL
[30]
  IC50 (ug/ml), neutralizing activity: 0.0089 µg/mL
[22]
  IC50, pseudovirus neutralization: 0.008 µg/mL
[23]
  IC50, pseudovirus neutralization: > 50 µg/mL
[24]
  IC50, pseudovirus neutralization: 5.66 µg/mL
[25]
  IC50, pseudovirus neutralization: 0.008 µg/mL

## 2G12 (antibody)
[3]
  neutralization IC50: 2.26 µg/mL
[4]
  IC50 (µg/ml), pseudovirus neutralization: 45.2 µg/mL
[1]
  IC50 (µg/ml), pseudovirus neutralization: > 50 µg/mL
[5]
  IC50 (µg/ml), pseudovirus neutralization: > 50 µg/mL
[6]
  IC50 (µg/ml), pseudovirus neutralization: > 50 µg/mL
[7]
  IC50 (µg/ml), pseudovirus neutralization: 0.29 µg/mL
[8]
  IC50: > 50 µg/mL
[9]
  IC50 (µg/ml), pseudovirus neutralization: > 50 µg/mL
[10]
  IC50 (µg/ml), pseudovirus neutralization: > 50 µg/mL
[11]
  IC50: > 50 µg/mL
